T1: CD20 on Raji cells (CD20+/CD3- cells) (human, UniProt P11836 1-297)
T1 construct: whole, on cells; Raji, Ramos and NAMALWA in the killing assays; also called Ramos; NAMALWA
T1 sequence (looked up): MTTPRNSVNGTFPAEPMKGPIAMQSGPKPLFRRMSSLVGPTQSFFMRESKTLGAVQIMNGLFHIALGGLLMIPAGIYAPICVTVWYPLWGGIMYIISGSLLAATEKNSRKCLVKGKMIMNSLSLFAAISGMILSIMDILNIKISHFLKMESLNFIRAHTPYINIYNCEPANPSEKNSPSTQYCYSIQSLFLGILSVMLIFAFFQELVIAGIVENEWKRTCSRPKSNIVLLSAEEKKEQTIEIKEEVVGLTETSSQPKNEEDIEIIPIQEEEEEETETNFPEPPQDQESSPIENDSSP


Columns and labels:
[1] = biological target: T2, CD3 on Jurkat cells (CD3+/CD20- cells) (human, UniProt P07766 23-207; P04234 22-171; P09693 23-182); assay: flow cytometry on Jurkat 2B8 cells (CD3+/CD20-)
T2 construct: whole, on cells; also called Jurkat 2B8
Description: (§1) After incubation, the cells were washed twice with cold 1% BSA/1×PBS. […] After being washed twice, the geometric mean fluorescence (MFI) of the stained cells was measured using a FACS Canto II […] (BD Biosciences). Wells containing no antibody or containing only fluorescent secondary antibody were used to establish background fluorescence. The EC50 values for cell binding were determined using GraphPad Prism 5 software (GraphPad Software, La Jolla, Calif.); each value was calculated by four-parameter non-linear regression analysis.

[2] = biological target: T1, CD20 on Raji cells (CD20+/CD3- cells); assay: flow cytometry on Raji cells (CD20+/CD3-)
Description: as §1

T2 sequence (P07766 23-207, chain 1 of 3): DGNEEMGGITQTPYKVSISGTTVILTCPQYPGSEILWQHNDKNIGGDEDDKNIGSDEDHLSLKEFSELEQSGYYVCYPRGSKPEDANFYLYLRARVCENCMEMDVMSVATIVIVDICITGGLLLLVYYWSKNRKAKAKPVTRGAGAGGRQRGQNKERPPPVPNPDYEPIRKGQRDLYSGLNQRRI
T2 sequence (P04234 22-171, chain 2 of 3): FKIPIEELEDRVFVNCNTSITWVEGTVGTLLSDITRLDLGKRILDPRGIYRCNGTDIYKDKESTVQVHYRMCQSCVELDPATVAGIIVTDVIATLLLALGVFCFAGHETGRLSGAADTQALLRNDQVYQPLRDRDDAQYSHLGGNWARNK
T2 sequence (P09693 23-182, chain 3 of 3): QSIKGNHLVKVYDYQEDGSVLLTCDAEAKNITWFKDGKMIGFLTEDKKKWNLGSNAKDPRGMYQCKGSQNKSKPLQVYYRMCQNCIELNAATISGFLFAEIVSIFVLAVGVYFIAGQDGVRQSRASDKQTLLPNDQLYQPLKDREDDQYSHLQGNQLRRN

Row | EC50 [1] [nM] | TOP MFI [1] [MFI] | EC50 [2] [nM] | TOP MFI [2] [MFI] | Binder
1 | 129 | 3880 | 13.2 | 68500 | W3278-T2U3.E17R-1.uIgG4.SP (bispecific antibody, Human IgG4 with S228P, knobs-into-holes; WuXiBody format, in which one arm carries TCR constant domains; also called W3278 BsAb; WBP3278 BsAb) heavy 1: QVQLVQSGAEVKKPGSSVKVSCKASGYSFTTYYIHWVRQAPGQGLEWMGWIFPGNDNIKYSEKFKGRVTITADKSTSTAYMELSSLRSEDTAVYYCAIDSVSIYYFDYWGQGTLVTVSSASTKGPSVFPLAPCSRSTSESTAALGCLVKDYFPEPVTVSWNSGALTSGVHTFPAVLQSSGLYSLSSVVTVPSSSLGTKTYTCNVDHKPSNTKVDKRVESKYGPPCPPCPAPEFLGGPSVFLFPPKPKDTLMISRTPEVTCVVVDVSQEDPEVQFNWYVDGVEVHNAKTKPREEQFNSTYRVVSVLTVLHQDWLNGKEYKCKVSNKGLPSSIEKTISKAKGQPREPQVYTLPPCQEEMTKNQVSLWCLVKGFYPSDIAVEWESNGQPENNYKTTPPVLDSDGSFFLYSRLTVDKSRWQEGNVFSCSVMHEALHNHYTQKSLSLSLG heavy 2: EVQLVESGGGLVQPGRSLRLSCAASGFTFNDYAMHWVRQAPGKGLEWVSTISWNSGSIGYADSVKGRFTISRDNAKKSLYLQMNSLRAEDTALYYCAKDIQYGNYYYGMDVWGQGTTVTVLEDLKNVFPPEVAVFEPSEAEISHTQKATLVCLATGFYPDHVELSWWVNGKEVHSGVCTDPQPLKEQPALQDSRYALSSRLRVSATFWQNPRNHFRCQVQFYGLSENDEWTQDRAKPVTQIVSAEAWGRYGPPCPPCPAPEFLGGPSVFLFPPKPKDTLMISRTPEVTCVVVDVSQEDPEVQFNWYVDGVEVHNAKTKPREEQFNSTYRVVSVLTVLHQDWLNGKEYKCKVSNKGLPSSIEKTISKAKGQPREPQVCTLPPSQEEMTKNQVSLSCAVKGFYPSDIAVEWESNGQPENNYKTTPPVLDSDGSFFLVSRLTVDKSRWQEGNVFSCSVMHEALHNHYTQKSLSLSLG light 1: not shown light 2: EIVLTQSPATLSLSPGERATLSCRASQSVSSYLAWYQQKPGQAPRLLIYDASNRATGIPARFSGSGSGTDFTLTISSLEPEDFAVYYCQQRSNWPITFGQGTRLEIKPDIQNPDPAVYQLRDSKSSDKSVCLFTDFDSQTQVSQSKDSDVYITDKCVLDMRSMDFKSNSAVAWSQKSDFACANAFQNSIIPEDTFFPSPESS
2 |  |  | 11.4 | 53500 | Anti-CD20. IgG4 (U2) (antibody, V domains shown, Tested as IgG4; also called parental anti-CD20 antibody U2) VH: QVQLQQPGAELVKPGASVKMSCKASGYTFTSYNMHWVKQTPGRGLEWIGAIYPGNGDTSYNQKFKGKATLTADKSSSTAYMQLSSLTSEDSAVYYCARSTYYGGDWYFNVWGAGTTVTVSA VL: QIVLSQSPAILSASPGEKVTMTCRASSSVSYIHWFQQKPGSSPKPWIYATSNLASGVPVRFSGSGSGTSYSLTISRVEAEDAATYYCQQWTSNPPTFGGGTKLEIK
3 | 33 | 3210 |  |  | Anti-CD3 Fab (T2) (Fab, V domains shown, Parental antibody tested as a Fab; The variable domains are tied to it through the clone naming: T2 is the anti-CD3 portion of W3278-T2U3 and W3278-U3T2; also called parental anti-CD3 antibody T2) VH: QVQLVQSGAEVKKPGSSVKVSCKASGYSFTTYYIHWVRQAPGQGLEWMGWIFPGNDNIKYSEKFKGRVTITADKSTSTAYMELSSLRSEDTAVYYCAIDSVSIYYFDYWGQGTLVTVSS VL: DIVMTQSPDSLAVSLGERATINCKSSQSLLNSRTRKNYLAWYQQKPGQPPKLLIYWASTRKSGVPDRFSGSGSGTDFTLTISSLQAEDVAVYYCTQSFILRTFGGGTKVEIK
4 | 43.7 | 3800 |  |  | Anti-CD3 Fab (T3) (Fab, V domains shown, Parental antibody tested as a Fab; The variable domains are tied to it through the clone naming: T3 is the anti-CD3 portion of W3278-T3U2 and W3278-U2T3; also called parental anti-CD3 antibody T3) VH: QVQLVQSGAEVKKPGSSVKVSCKASGFAFTDYYIHWVRQAPGQGLEWMGWISPGNVNTKYNENFKGRVTITADKSTSTAYMELSSLRSEDTAVYYCARDGYSLYYFDYWGQGTLVTVSS VL: DIVMTQSPDSLAVSLGERATINCKSSQSLLNSRTRKNYLAWYQQKPGQPPKLLIYWASTRQSGVPDRFSGSGSGTDFTLTISSLQAEDVAVYYCTQSHTLRTFGGGTKVEIK

Reference: US20230279138A1 (CHIA TAI TIANQING PHARMACEUTICAL GROUP, published 2023)
